Substitutions are numbered along the chain they refer to.

The labels stand for the following.
T1: recombinant DR3 (DR3-His tag) (human, UniProt Q93038 25-199)
T1 chain: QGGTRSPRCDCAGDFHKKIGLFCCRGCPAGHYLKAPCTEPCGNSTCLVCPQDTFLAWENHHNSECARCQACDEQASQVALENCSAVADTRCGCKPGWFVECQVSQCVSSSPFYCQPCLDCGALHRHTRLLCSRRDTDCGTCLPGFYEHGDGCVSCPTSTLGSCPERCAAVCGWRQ

B1: clone 4-4 IgG2 monoclonal antibody (antibody, V domains shown)
VH: EVQLVESGGGLVKPGGSLRLSCAASGFTFSDYYMSWIRQAPGKGLEWVSYISSSSSYTNYADSVKGRFTISRDNAKNSLYLQMNSLRAEDTAVYYCASNVDTAMVGAFDIWGQGTLVTVS
VL: DIEMTQSPSSVSASVGDTVTITCRASQHISNWLAWYQQKPGQAPKFLIYTASNLQSGVPSRFSGSGYGTDFTLTISGLQPEDFATYYCQQADSFPLTFGGGTKVDIK
B2: clone 4-4 IgG1 monoclonal antibody (antibody, V domains shown)
VH: B1 VH
VL: B1 VL
B3: TL1A (tumor necrosis factor-like ligand 1A), His tag (ligand)
chain: LKGQEFAPSHQQVYAPLRADGDKPRAHLTVVRQTPTQHFKNQFPALHWEHELGLAFTKNRMNYTNKFLLIPESGDYFIYSQVTFRGMTSECSEIRQAGRPNKPDSITVVITKVTDSYPEPTQLLMGTKSVCEVGSNWFQPIYLGAMFSLQEGDKLMVNVSDISLVDYTKEDKTFFGAFLL
B4: anti-DR3 6-2 monoclonal antibody (antibody, V domains shown)
VH: QVQLVQSGGGLVQPGGSLRLSCAASGFTFSSYSMNWVRQAPGKGLEWVSYISSSSSTIYYADSVKGRFTISRDNAKNSLYLQMNSLRAEDTAVYYCARWDGYCSGGSCYSGMDYWGQGTLVTVS
VL: not shown
B5: anti-DR3 2-10 monoclonal antibody (antibody, V domains shown)
VH: QVQLVQSGAEVKKPGASVKVSCKASGYTFTSYGISWVRQAPGQGLEWMGWISAYNGNTNYAQKLQGRVTMTTDTSTSTAYMELRSLRSDDTAVYYCASGPDYGMLDYWGQGTLVTVS
VL: EIVMTQSPSSLPASVGDRVTITCQASQDISNYLNWYQQKPGKAPKLLIYDASNLETGVPSRFSGSGSGTDFTFTISSPQPEDIATYYCQQYDNLPLTFGGGTKVEIK
B6: anti-DR3 6-15 monoclonal antibody (antibody, V domains shown)
VH: B4 VH
VL: B5 VL with E1D, V3E, P12S, R18K, F71S, P78L
B7: anti-DR3 3-18 monoclonal antibody (antibody, V domains shown)
VH: QVQLQQSGPGLVKPSETLSLTCTVSGGSISSSSYYWGWIRQPPGKGLEWIGSIYYSGSTYYNPSLKSRVTISVDTSKNQFSLKLSSVTAADTAVYYCARQVSGPLDYWGQGTLVTVS
VL: DIVMTQSPSSLSASVGDRVTITCRASQGIRNDLGWYQQKPGKAPKLLIYAASSLQSGVPSRFSGSGSGTDFTLTISSLQPEDFATYYCLQDYNYPRTFGQGTKVEIK

The target of this assay is T1, recombinant DR3 (DR3-His tag). Briefly: SPR.
By Kd is commonly meant the free concentration of one partner at which half of the binding sites on the other are occupied at equilibrium, for simple one-to-one binding. As to B1, the Kd came to 35.8 nM. With B2, the Kd came to 1.56 nM.

Take B3: the Kd came to 426 nM. Regarding B4, the Kd worked out at 3.91 nM. Next, B5: 0.693 nM; B6: 82.4 nM. Consider B7, for which the Kd amounted to 0.0463 nM.

The values above are taken from patent US20260159596A1 (published 2026).
